Article PMC9482650, “Quantitative fragmentomics allow affinity mapping of interactomes” (Nature Communications, 2022)

Assays:
Experiment in all cases: holdup assay
Set-up in all cases: key: below the threshold = too weak to quantify, mostly under pKd 3.1 to 4
Details in all cases: plain residues with an end cap or a label only (N-terminal biotin on a linker: ahx)
RHPN1, Q8TCX5 = target: T1, RHPN1, Q8TCX5
T1 sequence (Q8TCX5 508-602, limits assumed, looked up): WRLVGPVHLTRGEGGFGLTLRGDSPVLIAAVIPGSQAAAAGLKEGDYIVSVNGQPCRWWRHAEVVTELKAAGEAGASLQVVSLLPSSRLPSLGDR

Inadl_6, Q8NI35 = target: Inadl_6, Q8NI35
Sequence of Inadl_6, Q8NI35 (Q8NI35 1058-1167): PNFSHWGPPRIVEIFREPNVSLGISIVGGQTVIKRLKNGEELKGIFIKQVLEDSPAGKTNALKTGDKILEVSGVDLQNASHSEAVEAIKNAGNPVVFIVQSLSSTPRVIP

DLG4_3, P78352 = target: DLG4_3, P78352
Sequence of DLG4_3, P78352 (P78352 306-403): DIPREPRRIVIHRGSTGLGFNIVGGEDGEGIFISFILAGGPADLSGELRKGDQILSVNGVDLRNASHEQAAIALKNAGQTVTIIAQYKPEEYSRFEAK

CARD11, Q9BXL7 = target: T2, CARD11, Q9BXL7
T2 sequence (Q9BXL7 662-765, limits assumed, looked up): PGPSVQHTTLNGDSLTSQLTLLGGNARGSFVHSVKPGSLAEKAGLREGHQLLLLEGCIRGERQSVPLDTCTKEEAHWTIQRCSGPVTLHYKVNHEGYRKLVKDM

GRID2IP_2, A4D2P6 = target: GRID2IP_2, A4D2P6
Sequence of GRID2IP_2, A4D2P6 (A4D2P6 272-370): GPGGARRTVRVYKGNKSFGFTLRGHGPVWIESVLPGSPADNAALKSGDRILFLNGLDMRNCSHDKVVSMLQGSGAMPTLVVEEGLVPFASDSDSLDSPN

PTPN3, P26045 = target: PTPN3, P26045
Sequence of PTPN3, P26045 (P26045 505-587): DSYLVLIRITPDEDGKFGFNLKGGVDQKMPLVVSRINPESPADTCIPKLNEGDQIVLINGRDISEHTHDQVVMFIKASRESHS

DFNB31_3, Q9P202 = target: T3, DFNB31_3, Q9P202
T3 sequence (Q9P202 811-907, limits assumed, looked up): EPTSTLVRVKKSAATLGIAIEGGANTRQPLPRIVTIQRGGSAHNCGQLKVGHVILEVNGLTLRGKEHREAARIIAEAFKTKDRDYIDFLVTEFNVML

MAGI2_5, Q86UL8 = target: MAGI2_5, Q86UL8
Sequence of MAGI2_5, Q86UL8 (Q86UL8 915-1017): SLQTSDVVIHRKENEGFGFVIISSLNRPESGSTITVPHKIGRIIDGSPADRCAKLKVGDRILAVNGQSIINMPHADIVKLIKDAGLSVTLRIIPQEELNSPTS

Inadl_10, Q8NI35 = target: Inadl_10, Q8NI35
Sequence of Inadl_10, Q8NI35 (Q8NI35 1673-1763): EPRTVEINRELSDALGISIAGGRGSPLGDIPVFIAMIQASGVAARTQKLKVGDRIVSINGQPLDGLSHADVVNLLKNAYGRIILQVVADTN

DVL3, Q92997 = target: T4, DVL3, Q92997
T4 sequence (Q92997 244-331, limits assumed, looked up): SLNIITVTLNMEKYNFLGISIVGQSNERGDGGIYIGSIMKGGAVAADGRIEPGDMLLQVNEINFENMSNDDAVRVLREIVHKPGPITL

CASK, O14936 = target: CASK, O14936
Sequence of CASK, O14936 (O14936 487-570): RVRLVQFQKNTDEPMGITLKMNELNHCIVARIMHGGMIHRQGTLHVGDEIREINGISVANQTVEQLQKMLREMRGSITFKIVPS

PCLO, Q9Y6V0 = target: T5, PCLO, Q9Y6V0
T5 sequence (Q9Y6V0 4491-4600, limits assumed, looked up): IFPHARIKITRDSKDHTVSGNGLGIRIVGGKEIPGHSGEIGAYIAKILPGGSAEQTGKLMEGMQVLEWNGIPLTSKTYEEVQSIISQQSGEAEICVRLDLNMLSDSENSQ

MAST1, Q9Y2H9 = target: MAST1, Q9Y2H9
Sequence of MAST1, Q9Y2H9 (Q9Y2H9 962-1065): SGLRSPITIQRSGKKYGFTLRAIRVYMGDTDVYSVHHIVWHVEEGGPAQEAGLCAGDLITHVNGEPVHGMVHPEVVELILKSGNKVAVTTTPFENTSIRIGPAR

SCRIB_3, Q14160 = target: SCRIB_3, Q14160
Sequence of SCRIB_3, Q14160 (Q14160 999-1103): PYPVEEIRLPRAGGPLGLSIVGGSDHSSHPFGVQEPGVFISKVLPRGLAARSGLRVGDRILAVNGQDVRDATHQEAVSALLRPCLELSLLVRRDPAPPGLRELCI

DLG1_2, Q12959 = target: DLG1_2, Q12959
MAGI1_2, Q96QZ7 = target: MAGI1_2, Q96QZ7
Sequence of MAGI1_2, Q96QZ7 (Q96QZ7 456-580): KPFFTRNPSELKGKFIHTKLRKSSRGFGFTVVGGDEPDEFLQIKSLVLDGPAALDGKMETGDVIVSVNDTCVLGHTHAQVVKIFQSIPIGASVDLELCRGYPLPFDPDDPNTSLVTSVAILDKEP

TJP2_1, Q9UDY2 = target: TJP2_1, Q9UDY2
Sequence of TJP2_1, Q9UDY2 (Q9UDY2 24-128): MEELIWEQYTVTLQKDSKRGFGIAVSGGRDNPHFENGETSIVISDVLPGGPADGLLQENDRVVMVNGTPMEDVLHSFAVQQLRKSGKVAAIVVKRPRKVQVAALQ

DLG3_3, Q92796 = target: T6, DLG3_3, Q92796
T6 sequence (Q92796 374-475, limits assumed, looked up): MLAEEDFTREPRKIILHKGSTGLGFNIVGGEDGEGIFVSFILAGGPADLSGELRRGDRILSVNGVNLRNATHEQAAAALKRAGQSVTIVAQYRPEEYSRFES

NHERF2_2, Q15599 = target: NHERF2_2, Q15599
Sequence of NHERF2_2, Q15599 (Q15599 142-238): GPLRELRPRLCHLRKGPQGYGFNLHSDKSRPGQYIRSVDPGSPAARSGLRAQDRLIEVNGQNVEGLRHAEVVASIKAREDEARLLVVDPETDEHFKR

LNX2_3, Q8N448 = target: T7, LNX2_3, Q8N448
T7 sequence (Q8N448 463-564, limits assumed, looked up): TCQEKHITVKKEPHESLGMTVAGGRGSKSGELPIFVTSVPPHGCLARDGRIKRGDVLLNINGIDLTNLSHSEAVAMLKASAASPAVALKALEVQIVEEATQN

GRIP1_7, Q9Y3R0 = target: T8, GRIP1_7, Q9Y3R0
T8 sequence (Q9Y3R0 999-1096, limits assumed, looked up): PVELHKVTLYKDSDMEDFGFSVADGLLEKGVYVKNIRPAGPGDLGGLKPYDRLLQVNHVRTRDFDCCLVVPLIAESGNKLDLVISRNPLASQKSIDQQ

MAGI2_3, Q86UL8 = target: MAGI2_3, Q86UL8
Sequence of MAGI2_3, Q86UL8 (Q86UL8 600-682): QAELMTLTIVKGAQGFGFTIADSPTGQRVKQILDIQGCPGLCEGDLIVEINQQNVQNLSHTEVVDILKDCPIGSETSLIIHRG

GRIP1_3, Q9Y3R0 = target: T9, GRIP1_3, Q9Y3R0
T9 sequence (Q9Y3R0 247-346, limits assumed, looked up): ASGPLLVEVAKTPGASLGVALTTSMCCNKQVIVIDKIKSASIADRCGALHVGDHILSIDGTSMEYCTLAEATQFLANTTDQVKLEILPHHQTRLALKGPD

DFNB31_1, Q9P202 = target: T10, DFNB31_1, Q9P202
T10 sequence (Q9P202 135-233, limits assumed, looked up): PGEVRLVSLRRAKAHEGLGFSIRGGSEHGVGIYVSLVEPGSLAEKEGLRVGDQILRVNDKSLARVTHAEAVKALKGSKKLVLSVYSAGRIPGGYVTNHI

FRMPD3, Q5JV73 = target: FRMPD3, Q5JV73
Sequence of FRMPD3, Q5JV73 (Q5JV73 12-100): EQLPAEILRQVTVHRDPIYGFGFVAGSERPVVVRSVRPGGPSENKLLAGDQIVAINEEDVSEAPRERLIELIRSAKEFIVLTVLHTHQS

TIAM2, Q8IVF5 = target: T11, TIAM2, Q8IVF5
T11 sequence (Q8IVF5 885-986, limits assumed, looked up): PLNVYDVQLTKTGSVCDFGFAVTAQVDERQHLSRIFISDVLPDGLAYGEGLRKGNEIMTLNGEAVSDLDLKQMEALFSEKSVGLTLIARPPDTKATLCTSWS

DLG1_1, Q12959 = target: DLG1_1, Q12959

| Binder | pKd (RHPN1, Q8TCX5) | pKd (Inadl_6, Q8NI35) | pKd (DLG4_3, P78352) | pKd (CARD11, Q9BXL7) | pKd (GRID2IP_2, A4D2P6) | pKd (PTPN3, P26045) | pKd (DFNB31_3, Q9P202) | pKd (MAGI2_5, Q86UL8) | pKd (Inadl_10, Q8NI35) | pKd (DVL3, Q92997) | pKd (CASK, O14936) | pKd (PCLO, Q9Y6V0) | pKd (MAST1, Q9Y2H9) | pKd (SCRIB_3, Q14160) | pKd (DLG1_2, Q12959) | pKd (MAGI1_2, Q96QZ7) | pKd (TJP2_1, Q9UDY2) | pKd (DLG3_3, Q92796) | pKd (NHERF2_2, Q15599) | pKd (LNX2_3, Q8N448) | further results |
| --- | --- | --- | --- | --- | --- | --- | --- | --- | --- | --- | --- | --- | --- | --- | --- | --- | --- | --- | --- | --- | --- |
| RRRKRKRTYL [HPV49-L2, P36762] | 3.51 | below the threshold | 4.26 | below the threshold | 5.11 | 3.72 | 4.25 | below the threshold | below the threshold | 3.57 | below the threshold | below the threshold | 4.21 | 3.75 | 3.82 | 5.71 | 5.68 | 4.28 | 3.49 | below the threshold | pKd (GRIP1_7, Q9Y3R0): 3.54; pKd (MAGI2_3, Q86UL8): below the threshold; pKd (GRIP1_3, Q9Y3R0): below the threshold; pKd (DFNB31_1, Q9P202): 3.58; pKd (FRMPD3, Q5JV73): 3.5; pKd (TIAM2, Q8IVF5): below the threshold; pKd (DLG1_1, Q12959): 3.49 |
| RAVEEEESRF [PSCDBP, O60759] | 4.44 | below the threshold | below the threshold | below the threshold | below the threshold | 3.98 | below the threshold | 3.7 | below the threshold | below the threshold | below the threshold | below the threshold | 4.02 | below the threshold | below the threshold | below the threshold | below the threshold | below the threshold | 5 | below the threshold | pKd (GRIP1_7, Q9Y3R0): below the threshold; pKd (MAGI2_3, Q86UL8): below the threshold; pKd (GRIP1_3, Q9Y3R0): below the threshold; pKd (DFNB31_1, Q9P202): below the threshold; pKd (FRMPD3, Q5JV73): below the threshold; pKd (TIAM2, Q8IVF5): below the threshold; pKd (DLG1_1, Q12959): below the threshold |
| NRKREIFSNF [NHERF2, Q15599] | below the threshold | below the threshold | below the threshold | below the threshold | below the threshold | below the threshold | below the threshold | below the threshold | below the threshold | below the threshold | below the threshold | below the threshold | below the threshold | below the threshold | below the threshold | below the threshold | below the threshold | below the threshold | below the threshold | below the threshold | pKd (GRIP1_7, Q9Y3R0): below the threshold; pKd (MAGI2_3, Q86UL8): below the threshold; pKd (GRIP1_3, Q9Y3R0): below the threshold; pKd (DFNB31_1, Q9P202): below the threshold; pKd (FRMPD3, Q5JV73): below the threshold; pKd (TIAM2, Q8IVF5): below the threshold; pKd (DLG1_1, Q12959): below the threshold |
